# In the RNAGym collection of RNA variant scans (doi:10.7554/elife.80360):
# B1: HDV Ribozyme (parent)
# chain: GGCCGGCAUGGUCCCAGCCUCCUCGCUGGCGCCGGCUGGGCAACAUUCCGAGGGGACCGUCCCCUCGGUAAUGGCGAAUGGGACCCA
# Variants of: B1
# Assay: self-cleavage, relative activity (ratio to wild type); higher = more cleavage; co-transcriptional
row,Variant,self-cleavage
1,GGCCGGCAUGGUCCCCGCCUCCUCGCUGGCGCCGGCUGGGCAACAUUCCGAGGGGACCGUCCCCUCGGUAAUGGCGAAUGGAACCCA [A16C G82A],0.72
2,GGCCGGCAUGGUCCCCGCCUCCUCGCUGGCGCCGGCUGGGCAACAUUCCUAGGGGACCGUCCCCUCGGUAAUGGCGAAUGGGACCCA [A16C G50U],0.692
3,GGCCGGCAUGGUCCCCGCCUCCUCGCUGGCGCCGGCUGGGCAACAUUCCGAGGGGACCGUCCCCUCGGUAAAGGCGAAUGGGACCCA [A16C U72A],0.437
4,GGCCGGCAUGGUCCCCGCCUCCUCGCUGGCCCCGGCUGGGCAACAUUCCGAGGGGACCGUCCCCUCGGUAAUGGCGAAUGGGACCCA [A16C G31C],0.0639
5,GGCCGGCAUGGUCCCCGCCUCCUCGCUGGCGCCGGCUGGGCAACAUUCCGAGGGGACCGUCCCCUCGGUAAUGGUGAAUGGGACCCA [A16C C75U],0.138
6,GGCCGGCAUGGUCCCCGCCUCCUCGCUGGCGCCGGCUGGGCAACAUUCCGAGGGGACCGUCCCCUCGGUAAUGGAGAAUGGGACCCA [A16C C75A],0.133
7,GGCCGGCAUGGUCCCCGCCUCCUCGCUGGCGCCGGCCGGGCAACAUUCCGAGGGGACCGUCCCCUCGGUAAUGGCGAAUGGGACCCA [A16C U37C],0.831
8,GGCCGGCAUGGUCCCCGCCUCCUCGCUGGCGCCGGCGGGGCAACAUUCCGAGGGGACCGUCCCCUCGGUAAUGGCGAAUGGGACCCA [A16C U37G],0.0923
9,GGCCGGCAUGGUCCCCGCCUCCUCGCUGGCGCCGGCAGGGCAACAUUCCGAGGGGACCGUCCCCUCGGUAAUGGCGAAUGGGACCCA [A16C U37A],0
10,GGCCGGCAUGGUCCCCGCCUCCUCGCUGGCGCCGGCUGGGCAACAUACCGAGGGGACCGUCCCCUCGGUAAUGGCGAAUGGGACCCA [A16C U47A],0.688
11,GGCCGGCAUGGUCCCCGCCUCCUCGCUGGCGCCGGCUGGGCAACAUUCCGAGGGGACCGACCCCUCGGUAAUGGCGAAUGGGACCCA [A16C U60A],1.11
12,GGCCGGCAUGGUCCCCGCCUCCUCGCUGGCGCCGGCUGGGCAACAUUCCGAGGGGACCGCCCCCUCGGUAAUGGCGAAUGGGACCCA [A16C U60C],0.369
13,GGCCGGCAUGGUCCCCGCCUCCUCGCUGGCGCCGGCUGGGCAACAUUCCGAGGGGACCGUCCCCUCGGUAAUGGCGAAUGGGAUCCA [A16C C84U],0.727
14,GGCCGGCAUGGUCCCCGCCUCCUCGCUGCCGCCGGCUGGGCAACAUUCCGAGGGGACCGUCCCCUCGGUAAUGGCGAAUGGGACCCA [A16C G29C],0
15,GGCCGGCAUGGUCCCCGCCUCCUCGCUGGCGCCGGCUGGGCAACAUUCCGAGGGGACCGUCCGCUCGGUAAUGGCGAAUGGGACCCA [A16C C63G],0.633
16,GGCCGGCAUGGUCCCCGCCUCCUCGCUGGCGCCGGCUGGGCAACAUUCCGAUGGGACCGUCCCCUCGGUAAUGGCGAAUGGGACCCA [A16C G52U],0.643

row,Variant,self-cleavage
1,GGCCGGCAUGGUCCCCGCCUCCUCGCUGGCGCCGGCUGGGCAACAUUCCGAAGGGACCGUCCCCUCGGUAAUGGCGAAUGGGACCCA [A16C G52A],0.751
2,GGCCGGCAUGGUCCCCGCCUCCUCGCUGGCGCCGGCUGGGCAACAUUCCGACGGGACCGUCCCCUCGGUAAUGGCGAAUGGGACCCA [A16C G52C],1.04
3,GGCCGGCAUGGUCCCCGCCUCCUCGCUGGCGCCGGCUGGGCAACAUUCCGAGGGGACCGUCCCCUCGGUAAUGGCGAAUCGGACCCA [A16C G80C],0.201
4,GGCCGGCAUGGUCCCCGCCUCCUCGCUGGCGCCGGCUGGGCAACAUUCCGAGGGGACCGUCCCCUCGGUAAUGGCGAAUUGGACCCA [A16C G80U],0.171
5,GGCCGGCAUGGUCCCCGCCUCCUCGCUGGCGCCGGCUGGGCAACAUUCCGAGCGGACCGUCCCCUCGGUAAUGGCGAAUGGGACCCA [A16C G53C],0.475
6,GGCCGGCAUGGUCCCCGCCUCCUCGCUGGCGCCGGCUGGGCAACAUUCCGAGAGGACCGUCCCCUCGGUAAUGGCGAAUGGGACCCA [A16C G53A],0.674
7,GGCCGGCAUGGUCCCCGCCUCCUCGCUGGCGCCGGCUGGGCAACAUUCCGAGGGGACAGUCCCCUCGGUAAUGGCGAAUGGGACCCA [A16C C58A],0.582
8,GGCCGGCAUGGUCCCCGCCUCCUCGCUUGCGCCGGCUGGGCAACAUUCCGAGGGGACCGUCCCCUCGGUAAUGGCGAAUGGGACCCA [A16C G28U],0.0437
9,GGCCGGCAUGGUCCCCGCCUCCUCGCUGGCGCCGGCUGGGCAACAUUCCGAGGGGACCGUCCCCUCGGUAAUGGCGAACGGGACCCA [A16C U79C],0.8
10,GGCCGGCAUGGUCCCCGCCUCCUCGCUGGCGCCGGCUGGGCAACAUUCCGAGGGGACCGUCCCCUCGGUAAUGGCGAAAGGGACCCA [A16C U79A],1.06
11,GGCCGGCAUGGUCCCCGCCUCCCCGCUGGCGCCGGCUGGGCAACAUUCCGAGGGGACCGUCCCCUCGGUAAUGGCGAAUGGGACCCA [A16C U23C],0.87
12,GGCCGGCAUGGUCCCCGCCUCCUCGCUGGCGCCAGCUGGGCAACAUUCCGAGGGGACCGUCCCCUCGGUAAUGGCGAAUGGGACCCA [A16C G34A],0.18
13,GGCCGGCAUGGUCCCCGCCUCCUCGCGGGCGCCGGCUGGGCAACAUUCCGAGGGGACCGUCCCCUCGGUAAUGGCGAAUGGGACCCA [A16C U27G],0.138
14,GGCCGGCAUGGUCCCCGCCUCCUCGCUGGCGCCGGCUGGGCAACAUUCCGAGGGGACCCUCCCCUCGGUAAUGGCGAAUGGGACCCA [A16C G59C],0.974
15,GGCCGGCAUGGUCCCCGCCUCCUCCCUGGCGCCGGCUGGGCAACAUUCCGAGGGGACCGUCCCCUCGGUAAUGGCGAAUGGGACCCA [A16C G25C],0
16,GGCCGGCAUGGUCCCCGCCUCCUCGCUGGCGCCGGCUGGGCAACAUUCCGAGGGGACCGUUCCCUCGGUAAUGGCGAAUGGGACCCA [A16C C61U],0.798
